Measured values: US20210198368A1 (Novartis, published 2021)

T1: human CLL-1 Fc (human, UniProt Q5QGZ9 65-265, limits assumed)
T1 construct: Captured at 120 RU on an anti-Fc CM5 chip for Biacore; not shown: Fc part of the fusion (captured by an anti-Fc / anti-huFc antibody)
T1 sequence (looked up): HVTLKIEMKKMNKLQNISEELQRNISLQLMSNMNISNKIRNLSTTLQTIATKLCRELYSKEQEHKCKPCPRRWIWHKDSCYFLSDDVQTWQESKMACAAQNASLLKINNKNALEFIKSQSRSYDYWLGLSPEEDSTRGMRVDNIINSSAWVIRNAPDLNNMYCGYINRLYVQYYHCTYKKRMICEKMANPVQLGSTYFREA

T2: human CLL-1 (human, UniProt Q5QGZ9 65-265, limits assumed)
T2 construct: The construct is not described; also called C-type lectin-like molecule-1; MICL
T2 sequence (looked up): T1 sequence (looked up)

B1: CLL-1-10 (scFv)
scFv: QVQLVQSGGGLVQPGGSLRLSCAASGFTFSSYSMNWVRQAPGKGLEWVSYISSSSSTIYYADSVKGRFTISRDNAKNSLYLQMNSLRAEDTAVYYCARDLSVRAIDAFDIWGQGTMVTVSSGGGGSGGGGSGGGGSGGGGSDIVLTQSPSSLSASVGDRVTITCQASQDISNYLNWYQQKPGKAPKLLIYDASNLETGVPSRFSGSGSGTDFTFTISSLQPEDFATYYCQQAYSTPFTFGPGTKVEIK
notes: Soluble scFv from HEK293F cells, purified on Ni-NTA; a tag is implied but not described; also called 146261
B2: CLL-1-9 (scFv)
scFv: QVQLVQSGAEVKEPGASVKVSCKAPANTFSDHVMHWVRQAPGQRFEWMGYIHAANGGTHYSQKFQDRVTITRDTSANTVYMDLSSLRSEDTAVYYCARGGYNSDAFDIWGQGTMVTVSSGGGGSGGGGSGGGGSGGGGSDIVMTQSPSSVSASVGDRVTITCRASQDISSWLAWYQQKPGKAPKLLIYAASSLQSGVPSRFNGSGSGTDFTLTISSLQPEDFATYYCQQSYSTPLTFGGGTKVEIK
notes: Soluble scFv from HEK293F cells, purified on Ni-NTA; a tag is implied but not described; also called 146259
B3: CLL-1-13 (scFv)
scFv: QVQLVQSGAEVKKSGASVKVSCKASGYPFTGYYIQWVRQAPGQGLEWMGWIDPNSGNTGYAQKFQGRVTMTRNTSISTAYMELSSLRSEDTAVYYCASDSYGYYYGMDVWGQGTLVTVSSGGGGSGGGGSGGGGSGGGGSDIQMTQSPSSLSASVGDRVTFTCRASQGISSALAWYQQKPGKPPKLLIYDASSLESGVPSRFSGSGSGTDFTLTISSLQPEDFATYYCQQFNNYPLTFGGGTKVEIK
notes: Soluble scFv from HEK293F cells, purified on Ni-NTA; a tag is implied but not described; also called 146264
B4: CLL-1-1 (scFv)
scFv: EVQLQQSGAEVKKPGSSVKVSCKASGGTFSSYAISWVRQAPGQGLEWMGGIIPIFGTANYAQKFQGRVTITADESTSTAYMELSSLRSEDTAVYYCARDLEMATIMGGYWGQGTLVTVSSGGGGSGGGGSGGGGSQSALTQPASVSGSPGQSITISCTGTSSDVGGYNYVSWYQQHPGKAPKLMIYDVSNRPSGVSNRFSGSKSGNTASLTISGLQAEDEADYYCSSYTSSSTLDVVFGGGTKLTVL
notes: Human scFv from phage display (VH-linker-VL); For Biacore it was made as soluble scFv in HEK293F cells and purified on Ni-NTA beads; a tag is implied but not described; also called 139115
B5: CLL-1-2 (scFv)
scFv: EVQLVESGGGVVQPGGSLRLSCAASGFTFDDYAMHWVRQAPGKGLEWVSLISGDGGSTYYADSVKGRFTISRDNSKNTLYLQMNSLRVEDTAVYYCARVFDSYYMDVWGKGTTVTVSSGGGGSGGGGSGSGGSEIVLTQSPLSLPVTPGQPASISCRSSQSLVYTDGNTYLNWFQQRPGQSPRRLIYKVSNRDSGVPDRFSGSGSDTDFTLKISRVEAEDVGIYYCMQGTHWSFTFGQGTRLEIK
notes: Human scFv from phage display; also called 139116

Experiments:
[1] = molecular target: T1, human CLL-1 Fc; experiment: SPR (Biacore T200), human CLL-1 Fc captured on an anti-Fc CM5 chip, scFv as analyte, 1:1 binding fit
Method: Next, the affinity for human CLL-1 of a representative number of anti-CLL-1 scFvs was tested by Biacore. Briefly, anti-Fc antibody (Jackson ImmunoReasearch, catalog #109-005-098) was immobilized to a CM5 sensor chip via amine coupling, and human CLL-1 Fc was then captured at a density of 120 RU. ScFv samples were serial diluted 3-fold and injected over the chip at a constant flow rate. Association and dissociation rates of the protein complex were monitored for 270 s and 400 s, respectively. Double referencing was performed against an anti-huFc coated flow cell and a buffer blank and the data was fit using a 1:1 Langmuir or steady state affinity model with the Biacore T200 evaluation software. Binding of clones CLL-1-6, CLL-1-8, CLL-1-9, CLL-1-10, and CLL1-13 to human CLL-1 was confirmed.

[2] = molecular target: T2, human CLL-1; experiment: ELISA and/or FACS of phage clones after panning on immobilized CLL-1

Binder | Kd [1] [nM] | koff [1] [s⁻¹] | kon [1] [M⁻¹ s⁻¹] | binding result [2]
B1 | 15 | 0.00214 | 142000 | 
B2 | 9.1 | 0.00128 | 141000 | 
B3 | 46.1 | 0.00119 | 25700 | 
B4 |  |  |  | binds
B5 |  |  |  | binds
